pKd: −log10 of the molar value.

The target in series [1] is biotinylated human D-MCP-1 (mirror-image D-protein) (Homo sapiens) (UniProt P13500). Put plainly: pulldown.
The target of series [2] is biotinylated murine D-MCP-1 (mirror-image D-protein) (Mus musculus) (UniProt P10148). Put plainly: pulldown. Conditions: subnanomolar.
The target in series [3] is human MCP-1 (CCL2, natural L-form) (Homo sapiens) (UniProt P13500). Put plainly: SPR. Conditions: L-RNA, 37 C, 1 mM Mg, 1 mM Ca.
Setting [4] is: direct or competitive pull-down.

Sequence of biotinylated murine D-MCP-1 (mirror-image D-protein) (Mus musculus) (P10148 24-99): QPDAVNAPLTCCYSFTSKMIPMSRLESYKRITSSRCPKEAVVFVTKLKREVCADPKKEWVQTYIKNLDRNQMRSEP
Sequence of biotinylated human D-MCP-1 (mirror-image D-protein) (Homo sapiens) (P13500 24-99): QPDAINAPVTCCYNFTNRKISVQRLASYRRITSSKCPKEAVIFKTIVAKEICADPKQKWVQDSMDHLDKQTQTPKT
Sequence of human MCP-1 (CCL2, natural L-form) (Homo sapiens) (P13500 24-99): as above

On to “ACGCACGUCCCUCACCGGUGCAAGUGAAGCCGUGGCUCUGC [D-180-D1-012]”, for which, in series [1] (setting [4]), the negative logarithm of the Kd (pKd) (in general, the negative decadic logarithm of the Kd, by convention in mol/L) was over 9.00.

Turning to “ACGCACGUCCCUCACCGGUGCAAGUGAAGCCGUGGCUCUGCGU [D-180-D1-002]”, the pKd in series [1] (setting [4]) is over 9.00.

In series [1] (Type 1B), “AGCGUGCCAGUGUGAUGGGGGGGCGCGACCCAUUUUACACGCU [D-176-C9trc]” had a negative logarithm of the Kd (pKd) of 8.30.

Sequence “AGCGUGCCCGGUGUGGUAGGGGGGCGCGACCUACAUUUGCACGCU [D-176-E10trc]” had a pKd in series [1] (Type 1A) of 8.30.

Sequence “CGCACGUCCCUCACCGGUGCAAGUGAAGCCGUGGCUCUGCG [D-180-D1-035]” had a negative-log Kd (pKd) in series [1] (setting [4]) of over 9.00.

As to “CUGGUUACCGAGGGGGCGUCGUUGGAGUUUGGUUGGUUGUCACCAG [D-189-G7-002]”, the pKd in series [2] (stated for derivatives) is over 9.00.

With “GAGAUGGCGACAUUGGUUGGGCAUGAGGCGAGGCCCUUUGAUGAAUCCGCGGCCAUUC [D-188-A3-001]”, the pKd in series [2] was over 9.00.

On to “GAUGGCGACAUUGGUUGGGCAUGAGGCGAGGCCCUUUGAUGAAUCCGCGGCCAUUC [D-188-A3-004]”, for which the pKd in series [2] (stated for derivatives) was over 9.00.

For “GCACGUCCCUCACCGGUGCAAGUGAAGCCGUGGCUCUGCG [D-NOX-E36 (D-180-D1-036)]”, the negative-log Kd (pKd) is 9.84 in series [1] (37 C, selection buffer 1 mM Mg, 1 mM Ca) and 9.05 in series [1] (room temperature, selection buffer 1 mM Mg, 1 mM Ca).

With “GCACGUCCCUCACCGGUGCAAGUGAAGCCGUGGCUCUGCG [NOX-E36 (180-D1-036)]”, the pKd in series [3] (PioneerF1 chip) was 9.05.

The sequence “GCACGUCCCUCACCGGUGCAAGUGAAGCCGUGGCUCUGCGU [D-180-D1-011]” had a pKd in series [1] (setting [4]) of over 9.00.

In series [2] (stated for derivatives), “GCCGGCUACCGAGGGGGCGUCGUUGGAGUUUGGUUGGUUGUCGCCGGC [D-189-G7-008]” had a negative-log Kd (pKd) of over 9.00.

For “GCCGGUUACCGAGGGGGCGUCGUUGGAGUUUGGUUGGUUGUCACCGGC [D-189-G7-007]”, in series [2] (stated for derivatives), the pKd was over 9.00.

Consider “GCGCGUACCGAGGGGGCGUCGUUGGAGUUUGGUUGGUUGUCCGCGC [D-189-G7-010]”, for which the pKd in series [2] (stated for derivatives) is over 9.00.

“GCUGGUUACCGAGGGGGCGUCGUUGGAGUUUGGUUGGUUGUCACCAGC [D-189-G7-001]” showed a pKd in series [2] of over 9.00.

In turn, “GGCGACAUUGGUUGGGCAUGAGGCGAGGCCCUUUGAUGAAUCCGCGGCCAUU [D-188-A3-006]” had a pKd in series [2] (stated for derivatives) of over 9.00.

Regarding “GGCGACAUUGGUUGGGCAUGAGGCGAGGCCCUUUGAUGAAUCCGCGGCCAUUC [D-188-A3-005]”, in series [2] (stated for derivatives), the pKd was over 9.00.

As to “GGGCCUACCGAGGGGGCGUCGUUGGAGUUUGGUUGGUUGUCGGCCC [D-189-G7-012]”, the pKd in series [2] (stated for derivatives) was over 9.00.

“GGGCGUAGUGAGAAACUACCAACGACUGGCUAGAGCCGGCCC [181-A2-018]”: the negative logarithm of the Kd (pKd) in series [3] (CM4 chip) is 9.43.

Turning to “GUGCGCGUAGUUAAAAACUACCAGCGACUGGCUAGAGCCGGCGCAC [D-178-D5-030]”, the pKd in series [1] (setting [4]) is 9.30.

As for “GUGCUGCGUAGUGAGAAACUACCAACGACUGGCUAGAGCCGGCAGCAC [D-181-A2]”, the pKd in series [1] (setting [4]) is 10.00.

“GUGCUGCGUAGUUAAAAACUACCAGCGACUGGCUAGAGCCGGCAGCAC [D-178-D5]” showed a pKd in series [1] (setting [4]) of 9.30.

In series [2] (stated for derivatives), “UGGUUACCGAGGGGGCGUCGUUGGAGUUUGGUUGGUUGUCACCA [D-189-G7-003]” gave a pKd of over 9.00.
